Values joined by “and” are separate entries in the source; they are usually repeats but may differ in a detail not shown here. Identical values can stand only once.
What was measured:
Conditions in all cases: both partners purified
[1] = target: T1, SARS-CoV-2 spike protein receptor-binding domain (RBD) (SARS-CoV-2, strain  …, UniProt P0DTC2); assay: ELISA
T1 construct: also called SARS-CoV-2 RBD; SARS RBD; source: provided by Roland Strong, Fred Hutchinson Cancer Research Center

[2] = target: T2, SARS-CoV-2 spike protein receptor-binding domain (RBD), coated on ELISA plates (SARS-CoV-2, strain  …, UniProt P0DTC2); assay: ELISA
T2 construct: also called SARS-CoV-2 RBD; SARS-CoV2 RBD; source: provided (Roland Strong, Fred Hutchinson Cancer Research Center)

[3] = target: enzymatically biotinylated SARS-CoV-2 RBD, loaded on streptavidin biosensors (SARS-CoV-2, strain  …, UniProt P0DTC2)
[4] = target: enzymatically biotinylated SARS-CoV-2 spike protein receptor-binding domain (RBD) (SARS-CoV-2, strain  …, UniProt P0DTC2)

| Binder | EC50 [1] | other results |
| --- | --- | --- |
| tcTRP9_(3)-VHH678_(3) (VHH, also called tcTRP9x3_VHH6783; construct 678; source: E. coli BL21(DE3)-RIL, purified (Ni-NTA, dialysis into 1x PBS)) VHH: QVQLQESGGGLVQAGGSLRLSCAASGRTFSEYAMGWFRQAPGKEREFVATISWSGGSTYYTRSVKGRFTISRDNAKNTVYLQMNSLKPDDTAVYYCAAAGLGTVVSEWDYDYDYWGQGTQVTVSS | 2.06 nM | – |
| tcTRP9_(3)-VHH681_(3) (trimeric tcTRP9_(3) with VHH 72D61R on each subunit, construct 681) (VHH, also called tcTRP9_(3)-VHH3; tcTRP9x3-VHH3; source: E. coli, purified (Ni-NTA, dialysis into 1x PBS)) VHH: QVQLQESGGGLVQAGGSLRLSCAASGRTFSEYAMGWFRQAPGKEREFVATISWSGGSTYYTRSVKGRFTISRDNAKNTVYLQMNSLKPDDTAVYYCAAAGLGTVVSEWDYDYDYWGQGTQVTVSS | – | EC50 [2]: 0.4 nM and ~0.64 nM; Kd [3]: ~0.43 nM |
| tcTRP9_(3)-VHH3 construct 680 (trimeric tcTRP9_(3) with VHH 72D61R on each subunit) (VHH, also called tcTRP9x3-VHH3; Trimeric VHH 72D61R; source: E. coli, purified (Ni-NTA, dialysis into 1x PBS)) VHH: QVQLQESGGGLVQAGGSLRLSCAASGRTFSEYAMGWFRQAPGKEREFVATISWSGGSTYYTRSVKGRFTISRDNAKNTVYLQMNSLKPDDTAVYYCAAAGLGTVVSEWDYDYDYWGQGTQVTVSS | – | EC50 [2]: 12 nM |
| tcTRP9_(3)-VHH683_(3) (VHH, also called tcTRP9x3_VHH6833; construct 683; source: E. coli BL21(DE3)-RIL, purified (Ni-NTA, dialysis into 1x PBS)) VHH: QVQLQESGGGLVQAGGSLRLSCAASGRTFSEYAMGWFRQAPGKEREFVATISWSGGSTYYTRSVKGRFTISRDNAKNTVYLQMNSLKPDDTAVYYCAAAGLGTVVSEWDYDYDYWGQGTQVTVSS | 2.69 nM | – |
| tcTRP9x3_VHH685_(3) (VHH, also called construct 685; source: E. coli BL21(DE3)-RIL, purified (Ni-NTA, dialysis into 1x PBS)) VHH: QVQLQESGGGLVQAGGSLRLSCAASGRTFSEYAMGWFRQAPGKEREFVATISWSGGSTYYTRSVKGRFTISRDNAKNTVYLQMNSLKPDDTAVYYCAAAGLGTVVSEWDYDYDYWGQGTQVTVSS | 1.88 nM | – |
| tcTRP9_(3)-VHH680_(3) (VHH, also called tcTRP9x3_VHH6803; construct 680; source: E. coli BL21(DE3)-RIL, purified (Ni-NTA, dialysis into 1x PBS)) VHH: QVQLQESGGGLVQAGGSLRLSCAASGRTFSEYAMGWFRQAPGKEREFVATISWSGGSTYYTRSVKGRFTISRDNAKNTVYLQMNSLKPDDTAVYYCAAAGLGTVVSEWDYDYDYWGQGTQVTVSS | 8.01 nM | – |
| tcTRP9_(3)-VHH684_(3) (VHH, also called tcTRP9x3_VHH6843; construct 684; source: E. coli BL21(DE3)-RIL, purified (Ni-NTA, dialysis into 1x PBS)) VHH: QVQLQESGGGLVQAGGSLRLSCAASGRTFSEYAMGWFRQAPGKEREFVATISWSGGSTYYTRSVKGRFTISRDNAKNTVYLQMNSLKPDDTAVYYCAAAGLGTVVSEWDYDYDYWGQGTQVTVSS | 1.89 nM | – |
| tcTRP9_(3)-VHH681_(3) (VHH, also called tcTRP9x3_VHH6813; construct 681; source: E. coli BL21(DE3)-RIL, purified (Ni-NTA, dialysis into 1x PBS)) VHH: QVQLQESGGGLVQAGGSLRLSCAASGRTFSEYAMGWFRQAPGKEREFVATISWSGGSTYYTRSVKGRFTISRDNAKNTVYLQMNSLKPDDTAVYYCAAAGLGTVVSEWDYDYDYWGQGTQVTVSS | – | koff [4]: 3.98e-05 s⁻¹ |
| tcTRP9_(3)-VHH682_(3) (VHH, also called tcTRP9x3_VHH6823; construct 682; source: E. coli BL21(DE3)-RIL, purified (Ni-NTA, dialysis into 1x PBS)) VHH: QVQLQESGGGLVQAGGSLRLSCAASGRTFSEYAMGWFRQAPGKEREFVATISWSGGSTYYTRSVKGRFTISRDNAKNTVYLQMNSLKPDDTAVYYCAAAGLGTVVSEWDYDYDYWGQGTQVTVSS | 4.65 nM | – |
| tcTRP9_(3)-VHH679_(3) (VHH, also called tcTRP9x3_VHH6793; construct 679; source: E. coli BL21(DE3)-RIL, purified (Ni-NTA, dialysis into 1x PBS)) VHH: QVQLQESGGGLVQAGGSLRLSCAASGRTFSEYAMGWFRQAPGKEREFVATISWSGGSTYYTRSVKGRFTISRDNAKNTVYLQMNSLKPDDTAVYYCAAAGLGTVVSEWDYDYDYWGQGTQVTVSS | 5.52 nM | – |

From publication PMC8556268 (Communications Biology, 2021)
